# Laboratory results published in the supplement of paper PMC9170038.
# System: MS2 coat protein
# Assay: apparent KD of MS2 coat protein; higher = weaker reporter binding
# Conditions: Eterna round: R107
# Summary of the method: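 The designed RNA switches were transcribed on-chip from Illumina sequencing clusters. In 100 mM Tris-HCl pH 7.5, 80 mM KCl and 4 mM MgCl2, without or with constant ligand, they were titrated with SNAP-549-labelled MS2 coat protein from 0.7 or 1.5 nM to 3 µM in twofold steps. Apparent KD is the per-design median of normalised cluster binding-curve fits.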
# [1] = input ligand: theophylline 20 uM
# [2] = input ligand: tryptophan 2.4 mM
# [3] = input ligand: theophylline 2 mM
Sequence,apparent KD of MS2 coat protein (input ligand: arginine 13.2 mM) [nM],apparent KD of MS2 coat protein [1] [nM],apparent KD of MS2 coat protein [2] [nM],apparent KD of MS2 coat protein (input ligand: none) [nM],apparent KD of MS2 coat protein [3] [nM]
UUCAGUACAACAGAUACCAGACAGUACUCUAAAUUGCAACAUGAGGAUCACCCAUGUAUAGUCCCUUGGCAGCUGUAAUGGGUGA [Theo B SS s2],150,159,70.8,–,–
UUCGCGGCCGCGCUGCACAUGUGUGUGUUACGAGGACCGGUACGGCCGCCACUCGCGAUCGCACAUGAGGAUCACCCAUGUGGGA [Exclusion Tryp A GF17],24.1,35.8,1040,25.7,75.6
UUCUACAUGAGGAUCACCCAUGUAAACGAUACCAGACGAGUAUUAGUCCCUUGGCAGCGUAGAGUGUCGUUUAUAGUAGGAUACC [TheoA-ms2@5],23.4,26.1,21,–,–
UUCUACGGCGAUCUGGGUUUACCAGAUCGACGAGGACCGGUACGGCCGCCACUCGUGUUUCUUUAACAUGAGGAUCACCCAUGUA [#11 Tryptophan A Same State],53,78.7,–,–,66.1
UUCUGGUCCCGUGAUACCAGAGACAUGAGGAUCACCCAUGUACAUGAGGAUCACCCAUGUUUCCCUUGGCAGCACUGUAGGGAGC [Exclusion Theophylline B GF 16],79.9,226,207,–,–
UUGCAUAUCUUGGAUACCAGCACAUGAGGAUCACCCAUGUCCGCGGGAUAGCUCCAGAUGUGCCCUUGGCAGCCACAUGCACUUG [Quinzama],10.9,18.4,10.7,–,–
UUGCCCAGUACGGCCGCCACUGUGUGCAGGGAACCCAGGUCCACAUGAGGAUCACCCAUGUACAGCAGGACCGGGUACUUGCAAU [Ininladia],8.14,11.9,–,–,10.6
UUGGUACAUGAGGAUCACCCAUGUACUGAAGGAGCGGGACGAAUCUCAGGUAGGUCGCAGACAUGAGGAUCACCCAUGUAUUGGU [Exclusion Arginine A GF 16],18.9,16.4,16.5,13,19
UUGUUGUUUGGAAGGAGCGUGGAUGAGUUAGAACAUGAGGAUCACCCAUGUUGGAUGAUACCGCAGGUAGGUCGCCGGGUGGUGG [11.aA],141,76.4,51.5,50.7,40
UUGUUGUUUGGAAGGAGCGUGUAAGAUUAAGAACAUGAGGAUCACCCAUGUUUUAAGGGAGCACAGGUAGGUCGCCGGGUGGUGG [11.S],14.4,31.5,21.5,12.3,15.9
UUUGCACAUGAGGAUCACCCAUGUACAGAUACCAGCCUCAUCUACGGCCCUUGGCAGCUGAGACAAUGGUGACGUGACGGGCUUU [Erqugere],13,14.4,13.2,–,–
UUUGCACAUGAGGAUCACCCAUGUACAGAUACCAGCCUCAUCUACGGCCCUUGGCAGCUGAGACAAUGGUGACGUGAUGGGCUUU [Iserraxeso],12.9,14.7,11.8,–,–
UUUUUCAUAGGUUAUAGUUAAGAAACUGAAGGAGCGUGGUAAUACACAGGUAGGUCGCAGAUUUUACAUGAGGAUCACCCAUGUU [JR_SSArginiA_Sub009],27.8,31.9,36.4,34.9,21.5
UUUUUUUUUUACAUGAGGAUCACCCAUGUUCGAGGACCGGUACGGCCGCCACUCGUUUUUGUUGUGGUAGGGUUAGGGUUAGGGU [Turkey Lurky],19.4,92,25.5,43.5,44.8
